Source: US20230279130A1 (QILU PUGET SOUND BIOTHERAPEUTICS, published 2023)
Changes are numbered by the printed parent chain. Blank lines part the entries; values can stand above or below the binder they belong to.

Assays:
[1] = target: T1, full length human CCR8 (hCCR8) (human, UniProt P51685 1-355); assay: cell-based or functional assay
[2] = target: T2, recombinant hCCR8 N-terminus fused at the N-terminal of Fc region of human IgG1 (human); assay: SPR (Biacore 3000), Fab flowed over captured CCR8-fc; column head printed 'K0' (KD)
T2 construct: also called recombinant huCCR8-N terminus antigen; huCCR8 N-terminus protein; not shown: Fc region of human IgG1
T2 sequence (chain, as listed by the source): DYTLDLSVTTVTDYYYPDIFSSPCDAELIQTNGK
Experimental: (§1) FIGS. 1A-1D: Binding of anti-CCR8 Fabs to recombinant huCCR8-N terminus antigen (Seq No.1). Binding affinity of anti-CCR8 Fabs for huCCR8 N-terminus protein was determined by Biacore analysis. Digested anti-CCR8 Fab fragments were flowed over captured antigen.
(§2) The affinity of the candidate antibodies for human CCR8 was assessed using SPR on a Biacore 3000 instrument. Anti-CCR8 Fab fragments were flowed over the cells in the chip with multiple blank (running buffer) injections also run to subtract system artifacts. The data were aligned, double referenced, and fit using SCRUBBER 2™ software (BioLogic Software, Pty, Australia). […] The binding of anti-CCR8 antibodies to CCR8 was then examined in HEK293 cells or P815 cells transfected with full-length hCCR8.

[3] = target: T2, recombinant hCCR8 N-terminus fused at …; assay: SPR, Biacore 3000; Fab flowed over captured hCCR8 N-terminus-Fc
Experimental: as §1, §2

[4] = target: T1, full length human CCR8 (hCCR8); assay: cell-based or functional assay; remark: listed apart in the source

average IC50 of inhibition of CCL1-mediated chemotaxis of hCCR8 P815 cells [1]: 1090 pM | Kd [2]: 0.876 nM
B1: engineered anti CCR8 Fab 1047 (Fab, V domains shown)
VH: EVQLVESGGGVVQPGRSLRLSCAASGFPFEPFAMNWVRQAPGKGLEWVARIRSKANNYATYYADSVKDRFAISRDNSKSTLYLLMHSLRFEDTAVYYCVRGRENNYGYAMDYWGQGTTVTVSS
VL: DVVMTQSPPSLPVTLGQSASISCRSSQSLLHSNGITYLYWFLQRPGQSPRLLIYRMSNLASGVPDRFSGSGSGTDFTLRISRVEAEDVGVYYCMQHLTYPFTFGIGTKVEIK
notes: Fab made by digesting the antibody; also called Fab fragment of 1047

average IC50 of inhibition of CCL1-mediated chemotaxis of hCCR8 P815 cells [1]: 414 pM
B2: Fab fragment of anti-CCR8 antibody 1434 (Fab, V domains shown)
VH: B1 VH with V11L, R16G, A49G, A71T, N76D, S79R, T80S, H86N, R89K
VL: B1 VL with P9L, S18P, L42Q, L51R, R79K

IC50 of inhibition of CCL1-mediated chemotaxis of hCCR8 P815 cells [1]: ~35 ng/mL | average IC50 of inhibition of CCL1-mediated chemotaxis of hCCR8 P815 cells [1]: 254 pM | Kd [3]: 0.647 nM | fold improvement of binding affinity against the original anti-CCR8 antibody candidate [3]: 2.5 fold
B3: Fab fragment of anti-CCR8 antibody 1187 (Fab, V domains shown)
VH: B1 VH with S79R
VL: B1 VL
notes: also called Fab 51

average IC50 of inhibition of CCL1-mediated chemotaxis of hCCR8 P815 cells [1]: 150 pM | Kd [2]: 0.385 nM
B4: engineered anti-CCR8 Fab 953 (Fab, V domains shown)
VH: B1 VH with N105R
VL: B1 VL
notes: Fab made by digesting the antibody

IC50, inhibition of chemotaxis of hCCR8-transfected P815 cells to 1 nM CCL1 (intact IgG1, Cell Titer Glo) [4]: 4.03 ng/mL
B5: anti-CCR8 antibody 1187 (antibody, V domains shown)
VH: B1 VH with S79R
VL: B1 VL
